Results on one molecule are retold here after publication PMC4346626.

The assay concerns the target envelope (E) protein of DENV3 reference strain CH53489, on the virus particle (dengue virus serotype 3, strain CH53489).

B1: Fab fragment of human monoclonal antibody 5J7 (Fab, V domains shown)
VH: QVQLVQSGAELRKPGSSVKVSCRASGGTFSSYTFNWVRQAPGQGLEWMGGFIPVFNTTNYAQTFQGRVTIAADKSTSTAYMELRSLRSEDTAIYYCARDKELLFSRAFDIWGQGTMVTVSS
VL: DIQMTQSPSSLSASVGDRVTITCRASQSISRYLNWYQREPGKAPKLLIYGASSLQRGVPSRFSGSGSGTDFTLTISSLQPEDFATYYCQQSQYIPYTFGQGTKVDIK
For B1, the neut50, flow cytometry-based neutralization of DENV3 (CH53489) infection of Vero-81 cells was found to be 0.041 µg/mL.
